Measured values: patent publication US20210220450A1, “TREATMENT OF AN IOP CONDITION” (The Research Foundation for The State University of New York, priority 2013, published 2021)

How the values were obtained:
[1] = molecular target: N-methyl-D-aspartate receptor (NMDAR); assay: cell-based or functional assay
[2] = molecular target: low-density-lipoprotein receptor-related protein 1 (LRP-1) (UniProt Q07954); assay: cell-based or functional assay
Sequence of UniProt Q07954 (Q07954 20-4544 limits assumed): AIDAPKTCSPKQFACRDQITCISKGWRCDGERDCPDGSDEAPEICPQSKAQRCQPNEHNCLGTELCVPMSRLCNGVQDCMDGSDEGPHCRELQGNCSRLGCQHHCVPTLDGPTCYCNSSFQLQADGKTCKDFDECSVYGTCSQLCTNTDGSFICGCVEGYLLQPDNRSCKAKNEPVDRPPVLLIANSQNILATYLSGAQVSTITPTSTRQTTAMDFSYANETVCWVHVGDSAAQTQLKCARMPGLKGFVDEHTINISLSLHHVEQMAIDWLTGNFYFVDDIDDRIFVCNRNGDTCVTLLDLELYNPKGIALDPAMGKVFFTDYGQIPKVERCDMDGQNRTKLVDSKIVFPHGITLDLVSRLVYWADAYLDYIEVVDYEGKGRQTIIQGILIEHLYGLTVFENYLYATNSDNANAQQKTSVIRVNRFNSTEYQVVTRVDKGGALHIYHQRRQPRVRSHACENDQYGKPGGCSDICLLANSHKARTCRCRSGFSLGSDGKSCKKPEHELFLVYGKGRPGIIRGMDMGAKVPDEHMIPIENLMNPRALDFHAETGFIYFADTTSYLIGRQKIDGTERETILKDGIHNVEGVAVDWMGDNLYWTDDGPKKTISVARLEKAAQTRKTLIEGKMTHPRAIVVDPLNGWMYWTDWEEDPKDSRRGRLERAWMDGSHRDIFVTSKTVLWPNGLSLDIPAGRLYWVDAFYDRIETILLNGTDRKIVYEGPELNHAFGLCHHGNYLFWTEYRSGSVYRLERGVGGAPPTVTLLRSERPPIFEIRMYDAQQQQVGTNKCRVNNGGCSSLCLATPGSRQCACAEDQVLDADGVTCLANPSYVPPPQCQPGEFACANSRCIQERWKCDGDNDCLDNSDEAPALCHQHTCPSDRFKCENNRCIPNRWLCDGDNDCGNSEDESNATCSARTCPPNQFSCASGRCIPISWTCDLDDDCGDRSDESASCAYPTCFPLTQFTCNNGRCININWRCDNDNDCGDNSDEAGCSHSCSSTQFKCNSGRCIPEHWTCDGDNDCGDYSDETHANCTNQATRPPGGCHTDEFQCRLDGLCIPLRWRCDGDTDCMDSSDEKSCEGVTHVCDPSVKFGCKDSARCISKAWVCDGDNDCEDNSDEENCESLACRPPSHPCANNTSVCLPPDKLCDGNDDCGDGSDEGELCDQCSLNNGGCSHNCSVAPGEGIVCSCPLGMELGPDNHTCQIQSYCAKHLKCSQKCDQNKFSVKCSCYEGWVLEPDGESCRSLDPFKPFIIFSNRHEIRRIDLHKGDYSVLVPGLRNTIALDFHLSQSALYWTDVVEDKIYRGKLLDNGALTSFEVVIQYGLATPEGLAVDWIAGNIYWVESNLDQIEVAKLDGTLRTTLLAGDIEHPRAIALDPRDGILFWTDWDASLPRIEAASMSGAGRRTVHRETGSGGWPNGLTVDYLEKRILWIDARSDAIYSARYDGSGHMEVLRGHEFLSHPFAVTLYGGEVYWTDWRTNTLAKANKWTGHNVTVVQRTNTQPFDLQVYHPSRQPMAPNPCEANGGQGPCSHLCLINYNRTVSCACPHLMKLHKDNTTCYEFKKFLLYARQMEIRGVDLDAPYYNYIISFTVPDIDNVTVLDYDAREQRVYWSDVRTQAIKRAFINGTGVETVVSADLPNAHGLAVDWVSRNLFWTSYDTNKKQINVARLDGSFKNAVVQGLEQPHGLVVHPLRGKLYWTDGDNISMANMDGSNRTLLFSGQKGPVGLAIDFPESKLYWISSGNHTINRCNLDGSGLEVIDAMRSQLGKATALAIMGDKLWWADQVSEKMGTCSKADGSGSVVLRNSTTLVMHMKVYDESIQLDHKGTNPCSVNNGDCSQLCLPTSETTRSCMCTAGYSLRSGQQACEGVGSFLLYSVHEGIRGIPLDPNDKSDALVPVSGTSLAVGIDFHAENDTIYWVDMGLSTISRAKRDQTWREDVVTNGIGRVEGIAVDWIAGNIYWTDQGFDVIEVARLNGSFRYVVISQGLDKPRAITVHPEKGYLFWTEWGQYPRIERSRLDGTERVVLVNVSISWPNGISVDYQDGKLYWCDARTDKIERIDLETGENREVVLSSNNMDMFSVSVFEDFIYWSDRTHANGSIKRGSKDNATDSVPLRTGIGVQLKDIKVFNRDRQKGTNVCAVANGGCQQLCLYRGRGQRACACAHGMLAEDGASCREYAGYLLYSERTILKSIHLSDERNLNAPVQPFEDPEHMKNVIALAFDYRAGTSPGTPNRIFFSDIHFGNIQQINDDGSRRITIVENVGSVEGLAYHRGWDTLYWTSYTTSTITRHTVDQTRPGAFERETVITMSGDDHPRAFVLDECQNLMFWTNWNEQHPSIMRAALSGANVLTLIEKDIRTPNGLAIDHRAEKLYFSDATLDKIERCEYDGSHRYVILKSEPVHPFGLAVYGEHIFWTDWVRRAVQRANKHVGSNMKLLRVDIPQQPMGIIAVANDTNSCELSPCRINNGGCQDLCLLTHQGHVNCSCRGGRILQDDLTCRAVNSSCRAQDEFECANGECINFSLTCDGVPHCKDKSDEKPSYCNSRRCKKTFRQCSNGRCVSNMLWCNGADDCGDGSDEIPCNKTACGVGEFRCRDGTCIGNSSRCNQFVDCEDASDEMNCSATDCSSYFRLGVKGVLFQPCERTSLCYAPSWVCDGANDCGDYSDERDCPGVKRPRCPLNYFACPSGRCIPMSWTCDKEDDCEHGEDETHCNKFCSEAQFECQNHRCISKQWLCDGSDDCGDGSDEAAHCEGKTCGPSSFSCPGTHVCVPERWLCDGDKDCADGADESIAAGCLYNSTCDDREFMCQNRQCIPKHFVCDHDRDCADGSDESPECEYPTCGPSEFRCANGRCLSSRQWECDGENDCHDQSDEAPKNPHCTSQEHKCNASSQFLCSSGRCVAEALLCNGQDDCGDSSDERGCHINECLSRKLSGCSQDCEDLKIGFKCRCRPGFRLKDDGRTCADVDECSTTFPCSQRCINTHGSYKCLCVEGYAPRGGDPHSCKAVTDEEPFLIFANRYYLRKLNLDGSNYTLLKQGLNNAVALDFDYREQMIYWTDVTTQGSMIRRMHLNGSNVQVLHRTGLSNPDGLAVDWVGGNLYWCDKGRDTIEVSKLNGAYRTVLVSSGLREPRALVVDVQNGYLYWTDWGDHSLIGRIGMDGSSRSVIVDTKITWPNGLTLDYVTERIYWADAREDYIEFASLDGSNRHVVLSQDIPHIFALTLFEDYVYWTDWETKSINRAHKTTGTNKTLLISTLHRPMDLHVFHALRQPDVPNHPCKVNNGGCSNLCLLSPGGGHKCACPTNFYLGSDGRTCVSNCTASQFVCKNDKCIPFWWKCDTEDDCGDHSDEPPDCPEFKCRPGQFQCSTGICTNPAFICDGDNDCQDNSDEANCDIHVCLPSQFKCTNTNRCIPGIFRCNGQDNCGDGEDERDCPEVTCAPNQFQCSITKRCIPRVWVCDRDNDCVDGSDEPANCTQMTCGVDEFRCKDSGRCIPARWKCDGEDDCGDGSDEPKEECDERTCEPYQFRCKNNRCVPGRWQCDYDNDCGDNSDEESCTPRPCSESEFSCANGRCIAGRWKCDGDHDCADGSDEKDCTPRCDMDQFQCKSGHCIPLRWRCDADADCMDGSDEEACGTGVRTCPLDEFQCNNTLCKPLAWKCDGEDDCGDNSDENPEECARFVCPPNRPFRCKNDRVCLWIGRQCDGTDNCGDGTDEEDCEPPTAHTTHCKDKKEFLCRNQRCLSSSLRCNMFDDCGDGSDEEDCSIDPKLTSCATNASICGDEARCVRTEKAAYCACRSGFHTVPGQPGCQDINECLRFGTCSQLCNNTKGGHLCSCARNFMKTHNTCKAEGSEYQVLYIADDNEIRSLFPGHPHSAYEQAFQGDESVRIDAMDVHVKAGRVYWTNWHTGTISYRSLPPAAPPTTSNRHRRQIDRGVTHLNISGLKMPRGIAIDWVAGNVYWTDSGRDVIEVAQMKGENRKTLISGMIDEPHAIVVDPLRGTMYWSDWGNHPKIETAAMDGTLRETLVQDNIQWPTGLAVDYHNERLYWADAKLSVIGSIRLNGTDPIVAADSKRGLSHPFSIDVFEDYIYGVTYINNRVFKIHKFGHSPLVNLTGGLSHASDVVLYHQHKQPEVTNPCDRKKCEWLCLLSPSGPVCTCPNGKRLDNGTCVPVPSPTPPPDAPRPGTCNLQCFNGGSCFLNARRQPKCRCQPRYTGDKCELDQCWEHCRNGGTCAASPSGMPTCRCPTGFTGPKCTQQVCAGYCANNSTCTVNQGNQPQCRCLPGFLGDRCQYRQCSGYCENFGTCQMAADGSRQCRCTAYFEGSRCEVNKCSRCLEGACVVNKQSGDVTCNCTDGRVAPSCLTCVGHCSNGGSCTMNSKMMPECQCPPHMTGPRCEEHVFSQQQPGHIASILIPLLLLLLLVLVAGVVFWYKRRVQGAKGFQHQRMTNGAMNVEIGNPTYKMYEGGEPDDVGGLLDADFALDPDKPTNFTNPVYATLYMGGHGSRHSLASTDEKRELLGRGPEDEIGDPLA

In the case of “non-enzymatically active tPA (NE-tPA/S478A-tPA) (from UniProt P00750 36-562)”, the Simulated outflow facility of HTM cells in ACOS, PA+NE-tPA (no inhibitor) (µl/min/mmHg/mm^2) [1] is reported as 0.55, the Simulated outflow facility of HTM cells in ACOS, PA+NE-tPA+MK-801 (inhibitor of NMDA receptor) (µl/min/mmHg/mm^2) [1] is reported as 0.29 and the Simulated outflow facility of HTM cells in ACOS, PA+NE-tPA+MK-801+RAP (both inhibitors) (µl/min/mmHg/mm^2) [1] is reported as 0.33. It also gave a Simulated outflow facility of HTM cells in ACOS, PA+NE-tPA (no inhibitor) (µl/min/mmHg/mm^2) [2] of 0.55, a Simulated outflow facility of HTM cells in ACOS, PA+NE-tPA+MK-801+RAP (both inhibitors) (µl/min/mmHg/mm^2) [2] of 0.33 and a Simulated outflow facility of HTM cells in ACOS, PA+NE-tPA+RAP (inhibitor of LRP1) (µl/min/mmHg/mm^2) [2] of 0.27.
